From paper PMC10141581

Tests used:
FLAG-CRBN (human) = FLAG-CRBN (human) (UniProt Q96SW2); test: co-IP; 20 μM purified Myc-14-3-3ζ added to lysate of HEK293T cells expressing FLAG-CRBN (Calyculin A, no phosphatase), 1 h; ANTI-FLAG M2 affinity gel; 50 mM Tris pH 7.5, 150 mM NaCl; Western blot with α-FLAG and α-myc
HSPB6-nhpSer16 [1] = biological target: HSPB6-nhpSer16 (UniProt O14558); test: AUC; sedimentation equilibrium; 14.3, 7.2 and 3.6 μM; 8,000, 10,000 and 15,000 rpm; 5 °C; 50 mM Tris pH 7.4, 150 mM NaCl, 1 mM TCEP; global fit to A + B ↔ AB with fixed masses of a HSPB6 dimer and a 14-3-3ζ dimer
HSPB6-pSer16 [2] = biological target: HSPB6-pSer16 (UniProt O14558); test: as above
HSPB6-nhpSer16 [3] = biological target: HSPB6-nhpSer16 (UniProt O14558); test: SEC-MALS; co-purified 14-3-3ζ/HSPB6 complexes, or purified HSPB6 mixed with 14-3-3ζ; Superdex 200 10/300 GL; 50 mM Tris pH 7.4, 150 mM NaCl, 0.5 mM TCEP; room temperature; samples at 50 μM
HSPB6-pSer16 [4] = biological target: HSPB6-pSer16 (UniProt O14558); test: as above
14-3-3ζ WT (human) = 14-3-3ζ WT (human) (UniProt P63104); test: SEC-MALS; 14-3-3ζ variants alone, injected at 50 μM initial concentration; Superdex 200 10/300 GL; 50 mM Tris pH 7.4, 150 mM NaCl, 0.5 mM TCEP; room temperature; dimer to monomers
14-3-3ζ [5] = biological target: 14-3-3ζ (UniProt P63104); test: His-tag co-purification after E. coli co-expression; settings: reference: HSPB6 wild type (Ser16); sites S16
14-3-3ζ [6] = biological target: 14-3-3ζ (UniProt P63104); test: SEC-MALS of homodimer, 50 µM; settings: reference: 14-3-3ζ wild type; sites S58
HSPB6 (Homo sapiens) = HSPB6 (Homo sapiens) (UniProt O14558); settings: cited from earlier work
HSPB6 (Homo sapiens), sequence (O14558 whole entry): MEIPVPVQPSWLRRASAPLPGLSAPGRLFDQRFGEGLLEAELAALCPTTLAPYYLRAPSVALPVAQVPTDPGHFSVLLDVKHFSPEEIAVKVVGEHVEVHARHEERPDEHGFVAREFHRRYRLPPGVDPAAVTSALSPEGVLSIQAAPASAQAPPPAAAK

HSPB6-pSer16, sequence (O14558 whole entry): as above
14-3-3ζ WT, sequence (P63104 1-230): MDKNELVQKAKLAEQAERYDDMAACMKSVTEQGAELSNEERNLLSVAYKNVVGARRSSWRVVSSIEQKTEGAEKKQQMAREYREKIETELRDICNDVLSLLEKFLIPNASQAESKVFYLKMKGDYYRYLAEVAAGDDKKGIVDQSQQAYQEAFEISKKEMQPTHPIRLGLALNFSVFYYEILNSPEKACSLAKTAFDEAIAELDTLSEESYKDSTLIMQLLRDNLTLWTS
FLAG-CRBN (human), sequence (Q96SW2 whole entry): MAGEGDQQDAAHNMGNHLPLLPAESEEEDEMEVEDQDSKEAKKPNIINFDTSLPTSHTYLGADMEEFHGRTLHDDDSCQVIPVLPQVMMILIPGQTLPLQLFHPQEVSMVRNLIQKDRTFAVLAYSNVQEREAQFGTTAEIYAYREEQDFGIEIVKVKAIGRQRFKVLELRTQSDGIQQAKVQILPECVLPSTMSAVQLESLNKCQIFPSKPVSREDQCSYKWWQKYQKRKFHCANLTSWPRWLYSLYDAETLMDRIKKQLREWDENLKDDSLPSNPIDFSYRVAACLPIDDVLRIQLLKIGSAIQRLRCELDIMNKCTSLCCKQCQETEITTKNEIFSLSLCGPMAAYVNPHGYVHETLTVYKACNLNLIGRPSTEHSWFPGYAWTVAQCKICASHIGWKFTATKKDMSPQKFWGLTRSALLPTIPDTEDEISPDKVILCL
14-3-3ζ (UniProt P63104), sequence (P63104 whole entry): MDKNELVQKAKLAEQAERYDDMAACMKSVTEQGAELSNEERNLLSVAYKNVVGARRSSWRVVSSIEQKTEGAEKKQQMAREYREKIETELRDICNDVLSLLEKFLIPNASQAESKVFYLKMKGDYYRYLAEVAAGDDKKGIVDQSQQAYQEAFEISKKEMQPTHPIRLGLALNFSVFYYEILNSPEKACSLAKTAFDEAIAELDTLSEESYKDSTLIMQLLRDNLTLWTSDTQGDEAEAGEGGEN
14-3-3ζ (from UniProt P63104), sequence (P63104 whole entry): as above
myc-14-3-3ζ nhpSer58, sequence (P63104 whole entry): as above
14-3-3ζ (from UniProt P63104) 14-3-3ζ pSer58 (genetic code expansion), sequence (P63104 whole entry, stated change not applied): as the sequence (P63104 whole entry) above

Substance: myc-14-3-3ζ nhpSer58 (from UniProt P63104 1-245) (natural protein)
- fold co-immunoprecipitated relative to myc-14-3-3ζ WT or pSer58 (FLAG-CRBN (human)): 10 fold

Substance: 14-3-3ζ WT (from UniProt P63104 1-230) (natural protein)
- Kd (HSPB6-nhpSer16 [1]): 0.12 µM
- Kd (HSPB6-pSer16 [2]): 0.092 µM
- stoichiometry N (14-3-3ζ chains per HSPB6 chain (2:2)) (HSPB6-nhpSer16 [3]): 1
- stoichiometry N (14-3-3ζ chains per HSPB6 chain (2:2)) (HSPB6-pSer16 [4]): 1
- stoichiometry N (14-3-3ζ WT (human)): 2

Substance: HSPB6 (small heat shock protein B6) (from UniProt O14558) HSPB6 pSer16 (genetic code expansion)
- binding against the reference (14-3-3ζ [5]): gained

Substance: 14-3-3ζ (from UniProt P63104) 14-3-3ζ pSer58 (genetic code expansion)
- binding against the reference (14-3-3ζ [6]): lost

Substance: 14-3-3ζ (from UniProt P63104)
- Kd (HSPB6 (Homo sapiens)): 0.56 µM
